Source: US20240309109A1 (MorphoSys, published 2024)
Positions count from the first letter of the chain named.

Tests used:
[1] = molecular target: T1, human CD38 on cells (human, UniProt P28907 1-300); test: FACS Scatchard on OPM2 cells, IgG format; * different experiment
T1 construct: The cell that carried CD38 is named under assay in each row; also called CD38 on Raji, RPMI8226, OPM2, CCRF-CEM, human erythrocytes, CD38 CHO-K1 transfectants

[2] = molecular target: T1, human CD38 on cells; test: FACS Scatchard on RPMI8226 cells, single measurement
[3] = molecular target: T1, human CD38 on cells; test: cell-based or functional assay
[4] = molecular target: T1, human CD38 on cells; test: FACS Scatchard on OPM2 cells, IgG format
[5] = molecular target: T1, human CD38 on cells; test: FACS Scatchard on OPM2 cells, mean from 2 measurements
[6] = molecular target: T1, human CD38 on cells; test: FACS Scatchard on CCRF-CEM cells, single measurement
[7] = molecular target: T2, human CD38 Fc-fusion aa 45-300 (human, UniProt P28907 45-300); test: ELISA on CD38 Fc-fusion protein, IgG format
T2 construct: Expressed in HEK293 behind a human Vkappa leader, which is left out here; also called CD38-Fc fusion protein; CD38 Fc-Fusion protein

[8] = molecular target: T1, human CD38 on cells; test: FACS Scatchard, IgG1 on Raji cells
[9] = molecular target: T2, human CD38 Fc-fusion aa 45-300; test: SPR (Biacore), Fab format
[10] = molecular target: T1, human CD38 on cells; test: FACS Scatchard on RPMI8226 cells
[11] = molecular target: T3, Cynomolgus CD38 on Erythrocytes (cynomolgus monkey, UniProt Q5VAN0); test: FACS, Fab format, cynomolgus erythrocytes
T3 construct: native protein on erythrocytes (pellet of the density gradient)

[12] = molecular target: T4, Cynomolgus CD38 on PBMCs (Lymphocytes) (cynomolgus monkey, UniProt Q5VAN0); test: FACS, Fab format, cynomolgus lymphocytes (PBMC fraction)
T4 construct: native protein on lymphocytes of the PBMC fraction of whole blood

[13] = molecular target: CD38 (antigen of the Bioveris affinity determination) (Homo sapiens (Human), UniProt P28907 45-300, limits assumed); test: Bioveris, Fab format
[14] = molecular target: T2, human CD38 Fc-fusion aa 45-300; test: SPR (Biacore), Fab on immobilized CD38 Fc-fusion
[15] = molecular target: T4, Cynomolgus CD38 on PBMCs (Lymphocytes); test: FACS, Fab format, cynomolgus lymphocytes (PBMC fraction); column taken from the order of panel A [Continued]
[16] = molecular target: T1, human CD38 on cells; test: FACS Scatchard on RPMI8226 cells; * different experiment
[17] = molecular target: T3, Cynomolgus CD38 on Erythrocytes; test: FACS, Fab format, cynomolgus erythrocytes; column taken from the order of panel A [Continued]
[18] = molecular target: T1, human CD38 on cells; test: FACS Scatchard on RPMI8226 cells, single measurement; RPMI8226 cells, FACS Scatchard; single measurement
[19] = molecular target: T1, human CD38 on cells; test: FACS Scatchard on OPM2 cells, IgG format; * different experiment; OPM2 cells, FACS Scatchard, IgG format; different experiment
[20] = molecular target: T1, human CD38 on cells; test: FACS Scatchard on CCRF-CEM cells, single measurement; CCRF-CEM cells, FACS Scatchard; single measurement
[21] = molecular target: T1, human CD38 on cells; test: FACS Scatchard on OPM2 cells, mean from 2 measurements; OPM2 cells, FACS Scatchard; mean from 2 measurements
[22] = molecular target: T2, human CD38 Fc-fusion aa 45-300; test: SPR (Biacore), Fab on immobilized CD38 Fc-fusion; 54 is the standard deviation (n = 3)
[23] = molecular target: T2, human CD38 Fc-fusion aa 45-300; test: SPR (Biacore), Fab on immobilized CD38 Fc-fusion; 84 taken as the standard deviation (n = 4) by footnote d

B1: MOR03087 IgG1 (antibody, V domains shown)
VH: QVQLVESGGGLVQPGGSLRLSCAASGFTFSSYYMNWVRQAPGKGLEWVSGISGDPSNTYYADSVKGRFTISRDNSKNTLYLQMNSLRAEDTAVYYCARDLPLVYTGFAYWGQGTLVTVSS
VL: DIELTQPPSVSVAPGQTARISCSGDNLRHYYVYWYQQKPGQAPVLVIYGDSKRPSGIPERFSGSNSGNTATLTISGTQAEDEADYYCQTYTGGASLVFGGGTKLTVLG
EC50 [1]: 17.4 nM
EC50 [2]: 6.3 nM
ADCC RPMI8226 EC50 [3]: 0.14 nM
CDC CHO EC50 [3]: 3.4 nM
EC50 [4]: 5.7 nM
EC50 [5]: 17.5 nM
EC50 [6]: 14.7 nM
ELISA CD38 Fc-Fusion protein (% Reactivity of MOR03087) [7]: 100%
Kd [8]: 5 nM

B2: MOR03087 Fab (Fab, V domains shown)
VH: B1 VH
VL: B1 VL
notes: Fab format
Kd [9]: 5.68 nM
EC50 [10]: 5.37 nM
binding result [11]: binds
binding result [12]: binds
Kd [13]: 0.0488 nM

B3: MOR03088 Fab (Fab, V domains shown)
VH: QVQLVESGGGLVQPGGSLRLSCAASGFTFSSYAMNWVRQAPGKGLEWVSGISSWGSSTYYADSVKGRFTISRDNSKNTLYLQMNSLRAEDTAVYYCAREDGSYMTDYFAYWGQGTLVTVSS
VL: DIELTQPPSVSVAPGQTARISCSGDNIGHYYVSWYQQKPGQAPVLVIYSDSNRPSGIPERFSGSNSGNTATLTISGTQAEDEADYYCQSYNGTYVFGGGTKLTVLG
notes: Fab format
Kd [9]: 41.4 nM
Kd [14]: 95 nM
binding result [15]: binds
EC50 [16]: 24.6 nM
binding result [17]: binds
Kd [13]: 2.15 nM

B4: MOR06200 IgG (antibody, V domains shown)
VH: B1 VH with G50A, G53N, D54N, P55G, S56N, N57V
VL: B1 VL
notes: copies: 2 + 2
EC50 [4]: 7.15 nM
ELISA CD38 Fc-Fusion protein (% Reactivity of MOR03087) [7]: 144%

B5: MOR03088 IgG (antibody, V domains shown)
VH: B3 VH
VL: B3 VL
EC50 [18]: 24.6 nM
ELISA CD38 Fc-Fusion protein (% Reactivity of MOR03087) [7]: 18%
EC50 [19]: 15.3 nM
EC50 [20]: 25.5 nM
EC50 [21]: 2.6 nM

B6: MOR03102 IgG1 (antibody, V domains shown)
VH: QVQLQESGPGLVKPGETLSLTCTVSGGSISGNYWSWIRQAPGKGLEWIGDYHGSTYYNPSLKGRVTISVDTSKNQFSLKLSSVTAEDTAVYYCAREQYHWGLAWTGFDNWGQGTLVTVSS
VL: DIELTQPPSVSVAPGQTARISCSGDNLGHYYVSWYQQKPGQAPVLVIYDDSDRPSGIPERFSGSNSGNTATLTISGTQAEDEADYYCGAYAMHMTVFGGGTKLTVLG
Kd [8]: 5 nM

B7: MOR03127 Fab (Fab, V domains shown)
VH: QVQLVQSGAEVKKPGESLKISCKGSGYSFSTSWVGWVRQMPGKGLEWMGIIDPDISYTSYSPSFQGQVTISADKSISTAYLQWSSLKASDTAMYYCARYLMGLGYDVWGQGTLVTVSS
VL: DIALTQPASVSGSPGQSITISCTGTSSDVGAINYVSWYQQHPGKAPKLMIYDVNKRPSGVPDRFSGSKSGNTASLTISGLQAEDEADYYCGSYTMQVGSYVFGGGTKLTVLG
notes: Fab format
Kd [22]: 168 nM

B8: MOR03128 Fab (Fab, V domains shown)
VH: QVQLKESGPALVKPTQTLTLTCTFSGFSLSSSGMSVSWIRQPPGKALEWLARIYSDDSKSYSTSLKTRLTISKDTSKNQVVLTMTNMDPVDTATYYCARAAHWNGPLFDVWGQGTLVTVSS
VL: DIELTQPPSVSVAPGQTARISCSGDNIGHYYAHWYQQKPGQAPVVVIYDDNDRPSGIPERFSGSNSGNTATLTISGTQAEDEADYYCQAYTGDGGRVFGGGTKLTVLG
notes: Fab format
Kd [23]: 117 nM

B9: MOR06183 IgG (antibody, V domains shown)
VH: B1 VH with S52N, G53M, D54E, P55S, S56T, N57R, T58I
VL: B1 VL
EC50 [4]: 8.91 nM
ELISA CD38 Fc-Fusion protein (% Reactivity of MOR03087) [7]: 106%

B10: MOR06184 IgG (antibody, V domains shown)
VH: B1 VH with G50A, G53H, P55G, S56N, N57V, T58K
VL: B1 VL
EC50 [4]: 10.6 nM
ELISA CD38 Fc-Fusion protein (% Reactivity of MOR03087) [7]: 150%

B11: MOR06185 IgG (antibody, V domains shown)
VH: B1 VH with G50A, G53M, D54N, P55G, S56D, N57Y, T58I, Y59S
VL: B1 VL
EC50 [4]: 11.5 nM
ELISA CD38 Fc-Fusion protein (% Reactivity of MOR03087) [7]: 142%

B12: MOR03081 IgG1 (antibody, V domains shown)
VH: QVQLVESGGGLVQPGGSLRLSCAASGFTFSSYALHWVRQAPGKGLEWVSSISGLGSTTYYADSVKGRFTISRDNSKNTLYLQMNSLRAEDTAVYYCARYHYEYHYFSSGFDNWGQGTLVTVSS
VL: DIVLTQSPATLSLSPGERATLSCRASQTGSTSYLAWYQQKPGQAPRLLIYDASKRATGVPARFSGSGSGTDFTLTISSLEPEDFATYYCHQYYNVPHTFGQGTKVEIKR
Kd [8]: 2.5 nM

B13: MOR06186 IgG (antibody, V domains shown)
VH: B1 VH with G50A, S52N, G53L, D54S, P55G, N57A, T58K
VL: B1 VL
EC50 [4]: 15.6 nM
ELISA CD38 Fc-Fusion protein (% Reactivity of MOR03087) [7]: 117%

B14: MOR06187 IgG (antibody, V domains shown)
VH: B1 VH with G50A, G53S, D54N, P55G, S56D, N57I
VL: B1 VL
EC50 [4]: 9.37 nM
ELISA CD38 Fc-Fusion protein (% Reactivity of MOR03087) [7]: 145%

B15: MOR06188 IgG (antibody, V domains shown)
VH: B1 VH with G50A, G53T, D54N, P55G, S56W, N57Q
VL: B1 VL
EC50 [4]: 20.1 nM
ELISA CD38 Fc-Fusion protein (% Reactivity of MOR03087) [7]: 140%

B16: MOR03085 IgG1 (antibody, V domains shown)
VH: QVQLVQSGAEVKKPGASVKVSCKASGYTFTGYYINWVRQAPGQGLEWMGWIFPNGGSTGYAQKFQGRVTMTRDTSISTAYMELSSLRSEDTAVYYCARGNIFIFDYWGQGTLVTVSS
VL: DIVLTQPPSVSGAPGQRVTISCSGSSSNIGNNYVSWYQQLPGTAPKLLIYGDDQRPSGVPDRFSGSKSGTSASLAITGLQSEDEADYYCQSYGTFSSFVFGGGTKLTVLG
Kd [8]: 10 nM
